PMC6093649

Biological target: T1, Chp2 chromodomain (recombinant Chp2-CD, wild type) (S. pombe)
T1 sequence (O42934 whole entry, looked up): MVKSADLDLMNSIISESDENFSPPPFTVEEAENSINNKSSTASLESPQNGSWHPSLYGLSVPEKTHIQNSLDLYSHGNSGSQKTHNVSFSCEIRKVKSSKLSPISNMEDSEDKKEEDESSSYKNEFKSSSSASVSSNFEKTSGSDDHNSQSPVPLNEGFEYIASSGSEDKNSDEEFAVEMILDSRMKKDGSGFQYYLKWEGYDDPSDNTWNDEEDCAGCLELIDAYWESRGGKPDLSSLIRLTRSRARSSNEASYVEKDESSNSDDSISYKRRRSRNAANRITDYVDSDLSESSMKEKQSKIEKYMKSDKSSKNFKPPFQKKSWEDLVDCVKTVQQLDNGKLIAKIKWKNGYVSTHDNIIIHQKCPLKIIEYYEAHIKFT
Test: ITC; MicroCal VP-ITC, 20°C; Chp2-CD protein in 20 mM KPO4 pH 6.8, 100 mM NaCl; H3K9me3 peptide injected into the protein in 1-μl aliquots at 3-min intervals

Kd: 4.37 µM
Binder: ARTKQTARKSTGGKAPRY (trimethyl-lysine at position 9 (Lys[Me]3)) [K9-trimethylated histone H3 (H3K9me3) peptide (1–18)]
